Assay results published in patent US20120141451A1.

Tests used:
[1] = molecular target: rat NCAM F3 modules 1-2 (rat) (UniProt P13596); assay: SPR (BIAcore2000), soluble FGFR Ig2 on immobilized NCAM F3 modules 1-2
[2] = molecular target: Ig2 module of mouse FGFR1 (IIIc isoform) (mouse) (UniProt P16092); assay: SPR (BIAcore2000), soluble NCAM F3 modules 1-2 on immobilized FGFR Ig2
Chain of Ig2 module of mouse FGFR1 (IIIc isoform) (mouse) (P16092 other isoform, or with tags, fused parts or gaps limits assumed, form in doubt): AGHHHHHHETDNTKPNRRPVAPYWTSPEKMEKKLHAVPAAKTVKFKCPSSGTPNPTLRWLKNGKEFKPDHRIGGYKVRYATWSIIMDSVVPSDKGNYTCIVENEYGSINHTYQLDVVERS

Chain of rat NCAM F3 modules 1-2 (rat) (P13596 other isoform, or with tags, fused parts or gaps limits assumed, form in doubt): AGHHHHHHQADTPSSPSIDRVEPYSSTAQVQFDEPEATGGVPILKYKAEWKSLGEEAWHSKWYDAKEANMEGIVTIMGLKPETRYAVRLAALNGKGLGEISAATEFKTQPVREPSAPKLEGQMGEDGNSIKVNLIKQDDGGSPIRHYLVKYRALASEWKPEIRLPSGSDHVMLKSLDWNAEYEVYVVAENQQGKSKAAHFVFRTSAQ

With “Ig2 module of mouse FGFR1 (IIIc isoform) (from UniProt P16092 140-251) (receptor)” the Kd [1] was 35 µM.
With “rat NCAM F3 modules 1-2 (from UniProt P13596 507-705) (receptor)” the Kd [2] was 12 µM.
